{"source": "the Human Domainome abundance scans (Beltran et al. 2025)", "parents": {"B1": {"name": "POU domain, class 4, transcription factor 1, residues 266 to 347; numbered along this chain, Q01851 (parent)", "chain": "RELEAFAERFKQRRIKLGVTQADVGSALANLKIPGVGSLSQSTICRFESLTLSHNNMIALKPILQAWLEEAEGAQREKMNKP"}}, "note": "± gives the uncertainty stated by the source."}
{"variants_of": "B1", "experiment": "abundance fitness (aPCA) (normalised: wild type 0, dead -1); higher = more abundant; growth selection in yeast, the domain comes from the species named", "conditions": "Homo sapiens"}
{"variant": "I63G", "abundance fitness": "-0.274 ± 0.041"}
{"variant": "I63K", "abundance fitness": "-0.137 ± 0.07"}
{"variant": "I63Q", "abundance fitness": "-0.247 ± 0.075"}
{"variant": "A74G", "abundance fitness": "-0.044 ± 0.023"}
{"variant": "A74V", "abundance fitness": "-0.005 ± 0.025"}
{"variant": "A74E", "abundance fitness": "0.025 ± 0.029"}
{"variant": "A74L", "abundance fitness": "0.006 ± 0.026"}
{"variant": "A74Q", "abundance fitness": "-0.029 ± 0.034"}
{"variant": "F10E", "abundance fitness": "-0.916 ± 0.053"}
{"variant": "F10A", "abundance fitness": "-0.762 ± 0.038"}
{"variant": "F10K", "abundance fitness": "-0.9 ± 0.079"}
{"variant": "F10Y", "abundance fitness": "-0.599 ± 0.064"}
{"variant": "S42H", "abundance fitness": "-0.152 ± 0.13"}
{"variant": "S42E", "abundance fitness": "0.004 ± 0.045"}
{"variant": "S42R", "abundance fitness": "-0.006 ± 0.037"}
{"variant": "K78M", "abundance fitness": "0.072 ± 0.09"}
{"variant": "K78L", "abundance fitness": "-0.012 ± 0.069"}
{"variant": "K78Q", "abundance fitness": "-0.045 ± 0.12"}
{"variant": "K78R", "abundance fitness": "0.047 ± 0.051"}
{"variant": "K78Y", "abundance fitness": "-0.106 ± 0.23"}
{"variant": "L17R", "abundance fitness": "-0.664 ± 0.046"}
{"variant": "L17F", "abundance fitness": "-0.309 ± 0.039"}
{"variant": "L17H", "abundance fitness": "-0.54 ± 0.047"}
{"variant": "L17I", "abundance fitness": "-0.126 ± 0.045"}
{"variant": "L17A", "abundance fitness": "-0.346 ± 0.038"}
{"variant": "L17V", "abundance fitness": "-0.286 ± 0.036"}
{"variant": "A59H", "abundance fitness": "0.227 ± 0.19"}
{"variant": "A59S", "abundance fitness": "-0.016 ± 0.05"}
{"variant": "A59Q", "abundance fitness": "0.056 ± 0.071"}
{"variant": "A59M", "abundance fitness": "0.009 ± 0.067"}
{"variant": "A59K", "abundance fitness": "0.035 ± 0.079"}
{"variant": "E8Q", "abundance fitness": "-0.019 ± 0.1"}
{"variant": "E8S", "abundance fitness": "0.014 ± 0.071"}
{"variant": "E8F", "abundance fitness": "-0.223 ± 0.12"}
{"variant": "E8V", "abundance fitness": "0.015 ± 0.057"}
{"variant": "E8G", "abundance fitness": "-0.048 ± 0.045"}
{"variant": "E8I", "abundance fitness": "-0.234 ± 0.12"}
{"variant": "I44M", "abundance fitness": "-0.437 ± 0.086"}
{"variant": "I44E", "abundance fitness": "-0.814 ± 0.12"}
{"variant": "I44L", "abundance fitness": "-0.153 ± 0.058"}
{"variant": "I44Y", "abundance fitness": "-1.01 ± 0.42"}
{"variant": "I44D", "abundance fitness": "-0.957 ± 0.48"}
{"variant": "I44K", "abundance fitness": "-1.04 ± 0.24"}
{"variant": "L68S", "abundance fitness": "-0.497 ± 0.08"}
{"variant": "L68E", "abundance fitness": "-0.672 ± 0.17"}
{"variant": "L68I", "abundance fitness": "0.037 ± 0.21"}
{"variant": "L68T", "abundance fitness": "-0.459 ± 0.12"}
{"variant": "L68M", "abundance fitness": "-0.112 ± 0.069"}
{"variant": "I58M", "abundance fitness": "-0.042 ± 0.074"}
{"variant": "I58G", "abundance fitness": "-0.147 ± 0.045"}
{"variant": "I58D", "abundance fitness": "-0.167 ± 0.091"}
{"variant": "L52S", "abundance fitness": "-0.557 ± 0.067"}
{"variant": "L52E", "abundance fitness": "-0.132 ± 0.052"}
{"variant": "L52V", "abundance fitness": "-0.588 ± 0.07"}
{"variant": "K16P", "abundance fitness": "-0.888 ± 0.053"}
{"variant": "K16S", "abundance fitness": "0.013 ± 0.027"}
{"variant": "K16D", "abundance fitness": "0.029 ± 0.049"}
{"variant": "K16A", "abundance fitness": "0.085 ± 0.034"}
{"variant": "K16T", "abundance fitness": "-0.032 ± 0.028"}
{"variant": "H54K", "abundance fitness": "0.007 ± 0.066"}
{"variant": "H54R", "abundance fitness": "0.053 ± 0.029"}
{"variant": "H54C", "abundance fitness": "-0.089 ± 0.059"}
{"variant": "H54E", "abundance fitness": "0.058 ± 0.047"}
{"variant": "H54I", "abundance fitness": "0.091 ± 0.1"}
{"variant": "H54S", "abundance fitness": "0.057 ± 0.043"}
{"variant": "P34M", "abundance fitness": "-0.163 ± 0.041"}
{"variant": "P34F", "abundance fitness": "-0.097 ± 0.065"}
{"variant": "P34E", "abundance fitness": "0.027 ± 0.033"}
{"variant": "P34H", "abundance fitness": "-0.167 ± 0.063"}
{"variant": "P34W", "abundance fitness": "-0.322 ± 0.041"}
{"variant": "P34N", "abundance fitness": "-0.133 ± 0.063"}
{"variant": "P34L", "abundance fitness": "-0.186 ± 0.036"}
{"variant": "K81Q", "abundance fitness": "-0.042 ± 0.18"}
{"variant": "K81M", "abundance fitness": "-0.059 ± 0.14"}
{"variant": "K81L", "abundance fitness": "0.043 ± 0.07"}
{"variant": "K81C", "abundance fitness": "0.1 ± 0.15"}
{"variant": "K81Y", "abundance fitness": "-0.224 ± 0.12"}
{"variant": "K81G", "abundance fitness": "0.021 ± 0.048"}
{"variant": "K81W", "abundance fitness": "0.027 ± 0.056"}
{"variant": "V24F", "abundance fitness": "-0.337 ± 0.14"}
{"variant": "V24P", "abundance fitness": "-1.06 ± 0.23"}
{"variant": "V24E", "abundance fitness": "-0.679 ± 0.088"}
{"variant": "V24N", "abundance fitness": "-0.531 ± 0.27"}
{"variant": "T51A", "abundance fitness": "-0.015 ± 0.034"}
{"variant": "T51Y", "abundance fitness": "-0.368 ± 0.05"}
{"variant": "T51N", "abundance fitness": "-0.042 ± 0.04"}
{"variant": "T51L", "abundance fitness": "-0.022 ± 0.031"}
{"variant": "T51D", "abundance fitness": "0.034 ± 0.046"}
{"variant": "S49N", "abundance fitness": "0.061 ± 0.045"}
{"variant": "S49V", "abundance fitness": "-0.654 ± 0.046"}
{"variant": "S49E", "abundance fitness": "0.045 ± 0.039"}
{"variant": "S49H", "abundance fitness": "-0.062 ± 0.039"}
{"variant": "S49C", "abundance fitness": "-0.082 ± 0.037"}
{"variant": "S49M", "abundance fitness": "-0.101 ± 0.037"}
{"variant": "S49L", "abundance fitness": "-0.181 ± 0.03"}
{"variant": "S49I", "abundance fitness": "-0.573 ± 0.063"}
{"variant": "L50F", "abundance fitness": "0.052 ± 0.042"}
{"variant": "L50W", "abundance fitness": "-0.233 ± 0.052"}
{"variant": "L50Q", "abundance fitness": "-0.01 ± 0.056"}
{"variant": "Q41N", "abundance fitness": "-0.137 ± 0.13"}
{"variant": "Q41D", "abundance fitness": "0.048 ± 0.084"}
{"variant": "Q41M", "abundance fitness": "-0.074 ± 0.064"}
{"variant": "Q41I", "abundance fitness": "0.074 ± 0.14"}
{"variant": "G25H", "abundance fitness": "0.122 ± 0.16"}
{"variant": "E77M", "abundance fitness": "0.021 ± 0.042"}
{"variant": "E77F", "abundance fitness": "-0.16 ± 0.063"}
{"variant": "E77D", "abundance fitness": "0.006 ± 0.051"}
{"variant": "C45R", "abundance fitness": "0.056 ± 0.04"}
{"variant": "C45T", "abundance fitness": "0.11 ± 0.068"}
{"variant": "C45K", "abundance fitness": "0.035 ± 0.058"}
{"variant": "G35T", "abundance fitness": "0.07 ± 0.19"}
{"variant": "G35D", "abundance fitness": "-0.142 ± 0.24"}
{"variant": "G18A", "abundance fitness": "-0.268 ± 0.17"}
{"variant": "G18R", "abundance fitness": "-0.231 ± 0.15"}
{"variant": "F6V", "abundance fitness": "-0.378 ± 0.026"}
{"variant": "F6E", "abundance fitness": "-0.359 ± 0.03"}
{"variant": "F6W", "abundance fitness": "-0.139 ± 0.026"}
{"variant": "R14F", "abundance fitness": "-1.07 ± 0.12"}
{"variant": "R14M", "abundance fitness": "-0.914 ± 0.092"}
{"variant": "R14V", "abundance fitness": "-0.932 ± 0.062"}
{"variant": "F47C", "abundance fitness": "-0.969 ± 0.28"}
{"variant": "A71G", "abundance fitness": "-0.379 ± 0.044"}
{"variant": "A71E", "abundance fitness": "-0.062 ± 0.054"}
{"variant": "N55I", "abundance fitness": "-0.093 ± 0.14"}
{"variant": "N55R", "abundance fitness": "0.045 ± 0.039"}
{"variant": "N55T", "abundance fitness": "0.034 ± 0.067"}
{"variant": "N55P", "abundance fitness": "0.104 ± 0.074"}
{"variant": "N55G", "abundance fitness": "0.044 ± 0.041"}
{"variant": "I15W", "abundance fitness": "-0.243 ± 0.048"}
{"variant": "I15R", "abundance fitness": "-0.037 ± 0.036"}
{"variant": "I15N", "abundance fitness": "-0.113 ± 0.04"}
{"variant": "I15G", "abundance fitness": "-0.286 ± 0.055"}
{"variant": "I15L", "abundance fitness": "-0.022 ± 0.028"}
{"variant": "M79W", "abundance fitness": "-0.015 ± 0.026"}
{"variant": "M79L", "abundance fitness": "0.001 ± 0.024"}
{"variant": "M79A", "abundance fitness": "0.004 ± 0.027"}
{"variant": "M79N", "abundance fitness": "0.023 ± 0.043"}
{"variant": "L3C", "abundance fitness": "-0.901 ± 0.22"}
{"variant": "L3I", "abundance fitness": "-0.02 ± 0.1"}
{"variant": "L3Q", "abundance fitness": "-0.262 ± 0.052"}
{"variant": "Q75M", "abundance fitness": "-0.025 ± 0.06"}
{"variant": "V19T", "abundance fitness": "-0.125 ± 0.068"}
{"variant": "V19Y", "abundance fitness": "-0.027 ± 0.086"}
{"variant": "V19W", "abundance fitness": "-0.016 ± 0.057"}
{"variant": "V19D", "abundance fitness": "-0.308 ± 0.14"}
{"variant": "T43D", "abundance fitness": "-0.079 ± 0.075"}
{"variant": "T43N", "abundance fitness": "-0.199 ± 0.26"}
{"variant": "T43F", "abundance fitness": "-0.587 ± 0.3"}
{"variant": "T43A", "abundance fitness": "-0.044 ± 0.051"}
{"variant": "L60A", "abundance fitness": "-0.344 ± 0.24"}
{"variant": "L60G", "abundance fitness": "-0.696 ± 0.48"}
{"variant": "E2H", "abundance fitness": "-0.194 ± 0.048"}
{"variant": "E2N", "abundance fitness": "0.025 ± 0.049"}
{"variant": "E2D", "abundance fitness": "0.023 ± 0.039"}
{"variant": "E2L", "abundance fitness": "-0.332 ± 0.032"}
{"variant": "A5I", "abundance fitness": "0.184 ± 0.14"}
{"variant": "A5F", "abundance fitness": "0.042 ± 0.089"}
{"variant": "A5D", "abundance fitness": "-0.043 ± 0.085"}
{"variant": "A5G", "abundance fitness": "-0.039 ± 0.036"}
{"variant": "G37F", "abundance fitness": "-0.149 ± 0.045"}
{"variant": "G37P", "abundance fitness": "-0.016 ± 0.04"}
{"variant": "N56Q", "abundance fitness": "0.083 ± 0.063"}
{"variant": "N56I", "abundance fitness": "-0.049 ± 0.098"}
{"variant": "N56F", "abundance fitness": "-0.136 ± 0.14"}
{"variant": "N56D", "abundance fitness": "-0.018 ± 0.075"}
{"variant": "K32E", "abundance fitness": "0.016 ± 0.13"}
{"variant": "K32I", "abundance fitness": "-0.165 ± 0.21"}
